The results in this text go back to PMC516168.

The assay addresses Mc-VHA-a fused to YFP (M. crystallinum). Kind of assay: FRET or BRET; in vivo FRET (CFP donor, YFP acceptor, fused to C-termini) in co-transformed A. thaliana mesophyll protoplasts; excitation 458 nm; acceptor photobleaching at 514 nm; confocal microscopy.

Consider Mc-VHA-c fused to CFP (natural protein), for which the FRET efficiency worked out at 0.45.
